The target of the experiment is GABARAP (human) (UniProt O95166). As to the kind of experiment: ITC, GABARAP titrated into the peptide.
GABARAP (human), sequence (O95166 whole entry): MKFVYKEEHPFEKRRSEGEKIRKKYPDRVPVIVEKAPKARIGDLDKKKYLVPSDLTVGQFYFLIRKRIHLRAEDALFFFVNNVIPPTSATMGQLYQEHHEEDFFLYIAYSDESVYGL

Take FAM134B LIR-L E462R (peptide): the Kd (in general, the concentration at which binding is half-saturated) is 633 nM.
